The target of series [1] is T1, PyPIF5 (Pyrus (red pear; cultivar of the cloned …, UniProt A0A5N5GDZ9 1-552).
T1 sequence: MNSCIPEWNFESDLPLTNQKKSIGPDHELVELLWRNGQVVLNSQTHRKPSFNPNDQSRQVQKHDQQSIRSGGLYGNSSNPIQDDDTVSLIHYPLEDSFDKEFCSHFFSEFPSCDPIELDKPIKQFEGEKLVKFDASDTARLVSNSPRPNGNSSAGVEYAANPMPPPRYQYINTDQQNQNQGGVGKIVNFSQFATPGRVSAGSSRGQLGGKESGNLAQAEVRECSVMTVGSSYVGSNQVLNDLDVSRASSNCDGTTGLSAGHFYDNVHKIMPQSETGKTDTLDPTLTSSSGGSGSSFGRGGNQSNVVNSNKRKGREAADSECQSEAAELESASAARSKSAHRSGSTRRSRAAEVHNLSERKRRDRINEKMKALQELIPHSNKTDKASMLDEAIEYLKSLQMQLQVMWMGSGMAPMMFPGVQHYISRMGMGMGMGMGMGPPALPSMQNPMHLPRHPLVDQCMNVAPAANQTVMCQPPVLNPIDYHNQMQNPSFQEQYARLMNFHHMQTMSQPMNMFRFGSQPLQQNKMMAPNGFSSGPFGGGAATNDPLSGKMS
Briefly: competition; unlabeled competitor of N1; binding gradually reduced; EMSA: 500 ng PyPIF5-His, 20 nM biotin probe, 20 uL with 4 uL 5x EMSA/Gel-Shift buffer (Beyotime GS009), 20 min, room temperature (~25 C); salt and pH not stated. The following applies: protein: recombinant; tags: His (pColdTF vector); chain copies: 2; as N1, 37/36 nt as printed. On the technique in general: In EMSA bound probe runs differently from free probe, usually more slowly.

Series [2] concerns the target T1, PyPIF5. Description: EMSA; mutant probe, G-box destroyed; Methods also describe it as a competitor; EMSA: 500 ng PyPIF5-His, 20 nM biotin probe, 20 uL with 4 uL 5x EMSA/Gel-Shift buffer (Beyotime GS009), 20 min, room temperature (~25 C); salt and pH not stated. The following applies: protein: recombinant; tags: His (pColdTF vector); chain copies: 2; label: biotin; blunt.

B1: Cold-probe (dsDNA)
DNA 1: TTGTAAAGAACACGTACGTTACACGTACGCTGAAACA
DNA 2: TGTTTCAGCGTAGTGTAACGTACGTGTTCTTTACAA
Turning to B1, the binding result in the series with PyPIF5 [1] is recorded as “binds”.

B2: Bio-Mut-probe (dsDNA)
DNA 1: TTGTAAAGAACAGATACGTTACACTACGCTGAAACA
DNA 2: TGTTTCAGCGTAGTGTAACGTATCTGTTCTTTACAA
With B2, the binding result with PyPIF5 [2] is reported as “no binding”.
